Reference: patent US20200087395 (published 2020)

Tests used:
[1] = target: T1, cynomolgus CD200RLa (activating form) (cynomolgus monkey); experiment: FACS
T1 chain: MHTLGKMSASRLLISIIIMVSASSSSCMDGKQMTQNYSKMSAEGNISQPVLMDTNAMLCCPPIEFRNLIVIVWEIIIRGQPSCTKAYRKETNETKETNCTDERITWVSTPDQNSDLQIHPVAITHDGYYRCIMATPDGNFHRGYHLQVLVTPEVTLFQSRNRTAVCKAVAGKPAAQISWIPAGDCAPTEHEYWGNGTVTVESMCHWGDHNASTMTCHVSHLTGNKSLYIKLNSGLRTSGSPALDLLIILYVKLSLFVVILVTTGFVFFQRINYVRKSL

[2] = target: T1, cynomolgus CD200RLa (activating form); experiment: SPR, 37C
FcγRIIIA_158F ECD = FcγRIIIA_158F ECD (human, UniProt P08637); experiment: SPR, 25C
FcγRIIIA_158F ECD, sequence (P08637 17-208): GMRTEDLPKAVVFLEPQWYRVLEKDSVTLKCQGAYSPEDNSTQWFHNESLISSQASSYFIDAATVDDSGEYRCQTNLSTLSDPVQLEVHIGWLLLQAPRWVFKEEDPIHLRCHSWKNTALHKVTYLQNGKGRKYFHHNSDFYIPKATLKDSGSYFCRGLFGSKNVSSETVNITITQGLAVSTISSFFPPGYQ

mouse CD200R = target: T2, mouse CD200R (mouse, UniProt Q9ES57); experiment: SPR, 37C
T2 chain: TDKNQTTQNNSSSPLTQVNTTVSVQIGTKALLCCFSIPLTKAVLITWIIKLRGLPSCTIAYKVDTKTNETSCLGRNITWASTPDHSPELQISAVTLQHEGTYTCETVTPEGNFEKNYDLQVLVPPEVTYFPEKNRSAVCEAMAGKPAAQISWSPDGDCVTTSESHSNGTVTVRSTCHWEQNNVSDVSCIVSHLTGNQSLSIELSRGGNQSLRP

binding result [1]: no binding
Kd [2]: 2.5 µM
Kd (FcγRIIIA_158F ECD): > 10 µM
Kd (mouse CD200R): > 10 µM
B1: Antibody I-4P (antibody)
chain 1: not shown
chain 2: EIVLTQSPDFQSVTPKEKVTITCQASESIDSYLLWYQQKPDQSPKLLIKQASTLASGVPSRFSGSGSGTDFTLTINSLEAEDAATYYCQNYYDISSNDFGGGTKVEIKRTVAAPSVFIFPPSDEQLKSGTASVVCLLNNFYPREAKVQWKVDNALQSGNSQESVTEQDSKDSTYSLSSTLTLSKADYEKHKVYACEVTHQGLSSPVTKSFNRGEC
modifications: listing feature
